From the nanobody polyreactivity screen of Harvey et al. (2022) come the findings set out here.

The data set is described as follows: yeast display, Sf9 membrane polyspecificity reagent, FACS + sequencing; frameworks hold sequencing errors. A digest of the protocol:
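Polyreactivity labels are assigned by the sorting gate from which each nanobody was recovered. The gates were low and high (top ~1%), set on anti-HA fluorescence for expression and streptavidin fluorescence for reagent binding. Before sorting, galactose-induced (36–48 hours) yeast display cells were stained for 1 hour at 4 °C with 10% biotinylated, detergent-solubilized Sf9 membrane reagent.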
Consider “QDHLVESGGGLVEARGSLRLSCAASGFIFRGYAMGWYRQAPGKERELVAAINSGGSTNYADSVKGRFTISRDNAKNTVYLQMNSLKPEDSAVYYCAARWRSWRYKDDYWGQGSQVTVSS”, for which the “polyreactivity (PSR sort gate)” value is given as “high polyreactivity”.

On to “QDHLVESGGGLVQAGGSLRLSCAASGNIIWWNAMGWYRQAPGKERELVAAITSDSTTYYADSVKGRFTISRDNAKNTVYLQLNSLKPEDTAVYYCAAYSYGGQGVDYGYWGQGTQVTVSS”, for which the “polyreactivity (PSR sort gate)” value was “low polyreactivity”.

As to “QDHLVESGGGLVQAGGSLRLSCAASGRIFTPNAMGWYRQAPGKERELVAAITSGGSTNYADSVKGRFTISRDNAKNTVYLQMNSLKPQDTAVYYCAVRYYYCSKKRNYWGQGTHVTVSS”, the “polyreactivity (PSR sort gate)” value is on record as “high polyreactivity”.

Consider “QDHLVESGGGLVQAGGTLRLSCAASGRIFVGYAMGWYRQAPGKERELVAGISRSGDSTYYADSVKGRFTISRDNAKNTVYLQMNSLKPEDTAVYYCAASWYKNQTRYYYWGQGTQVTVSS”, for which the “polyreactivity (PSR sort gate)” value is “high polyreactivity”.

With “QDHLVESGVGLVQAGGSLRLSCAASGFAFWTYTMGWYRQAPGKERELVATITRGGRTKYADSVKGRFTISRDNAKNTVYLQMNSLKPEDTAVYYCAAARRRTGVRMDYWGLGTQVTVSS”, the “polyreactivity (PSR sort gate)” value is reported as “high polyreactivity”.

In the case of “QDLLVESGGGLVQAGGSLGLSCAASGRIFSIYAMGWYRLAPGKERELVAAITRGGRTNYADSVKGRFTISRDNAKNTDYLQMISLKPEDTAVYYCADRLIDGVVKPYDYWGQGTQVTVSS”, the “polyreactivity (PSR sort gate)” value is on record as “low polyreactivity”.

Turning to “QDPHVESGGGIVQAGGSISLRCSASGSTYAKKAMVRYRKAPGKEKELFADISASGGSTYYADSVKGRFTISRDIAKNSVYLQMYSLKPEETSVYYWAKSSYLTRGSRYDYWGQGTQVTLSS”, the “polyreactivity (PSR sort gate)” value is “low polyreactivity”.

Take “QDQHVESGGGLVQAGGSLRLSCAASGIIFYAYVMGWYRQAPGKERELVAAITVSGGSTYYADSVKARFTISRDNAKNTVYLQMNSLKPEDTAVYYCAADWNFYQRTFDSWGQGTQVTVSS”: the “polyreactivity (PSR sort gate)” value is recorded as “low polyreactivity”.

Turning to “QDQHVESGGGLVQAGGSLRLSCAASGITIRTNAIGWYRQAPGKERELVAAITTNGGNTYYADSVKGRFTISRENAKNTVYLQMNSLKQEDTAVYYCNTATYVDSFPDPGDHWGQGTQVTVSS”, the “polyreactivity (PSR sort gate)” value was “low polyreactivity”.

With “QDQHVESGGGLVQAGGSLRLSCAASGLTYRYNAMGWYRPAPGKERELVAAITSSGGSTYYADSVKGRFTISRDNAKNTVYLQMNSLKPEDTAVYYCAAATNTQESVPMYYWGQGTQVTVSS”, the “polyreactivity (PSR sort gate)” value is given as “low polyreactivity”.

In the case of “QDQHVESGGGLVQAGGSLRLSCAASGSIFVTNAMGWCRQARGKERELVAAISVSGGSTYYADSVKGRFTISRDNAKHTVYLQMTSLKPEDTAVYYCNTVRSPPGHDSWGQGTQVTVSS”, the “polyreactivity (PSR sort gate)” value is listed as “low polyreactivity”.

Consider “QDQHVESGGGLVQAGGSLRLSCAASGSTIVDYVMGWYRQAPGKERELVAAIRRSDGRTYYADSVKGRFTISRDNAKNTVYLQMNSLKPEDTAVYYCADYAFYRYFFPDVLYDYWGQGTQVTVSS”, for which the “polyreactivity (PSR sort gate)” value is on record as “low polyreactivity”.

As for “QDQHVESGGGLVQAGGSLRLSCAASGSTLYRYAMGWYRQAPGKERELVAAISSAGSTHYADSVKGRFTISRDNAKNTVYLQKNSLKPEDTAVYYCAKVVKKIEFDYWGQGTQVTVSS”, the “polyreactivity (PSR sort gate)” value is given as “high polyreactivity”.

“QDQHVESGGGLVQAGGSLRLSCADSGIIFYPNAMGWYRQAPGKERELVAAITGSGGSTYYADSVKGRFTISRDNAKYTVYIQMNSLKPEDTAVYYCATRYHRSDPSRDYWGQGTQVTVSS”: the “polyreactivity (PSR sort gate)” value was “low polyreactivity”.

For “QDQHVESGGGLVQAGGSLRLSCDASGTTIYDYVMGWYRKAPGKERELVAAITRGGSTNYADSVKGRFTISRDNAKNTVYLQMNRLKPEDTAVYYCAARPCIWARAGYYWGQGTQVTVSS”, the “polyreactivity (PSR sort gate)” value is listed as “high polyreactivity”.

In the case of “QDQHVESGGGLVQAGGSLRLSFAASGRIFRYYAMRWYRQAPGKDRELVAAIRWTAGSTYYADSVKVRFTISRDNAKNTVYLQMNSLKPEDPAVYYCATDVWKYGRYEYWVQGTQVTVSS”, the “polyreactivity (PSR sort gate)” value is listed as “low polyreactivity”.

For “QDQHVQSGVGIVQAVGSLRLSCAASGFTIPSYAMGWYRMAPGKEREFVAAISWNSGSTYYADSVKGRFTISRDNAKNTVYLQMNSLKPEDTAVYYCNAGAYVRRRYAPGYSFEYDSWGQGTQVTVSS”, the “polyreactivity (PSR sort gate)” value is given as “high polyreactivity”.

Turning to “QDQIVESCGGLVQAGGSLRLSCASSGNIIYPKAMGWYRQAPGKERDLVAAISTSRGSTYYADSVKGRFTISRDNAKNTVYLQMNSLKPEDTAVYYCNRRGPYGYKAWAIGTIGDLDYWGQGTQVTVSS”, the “polyreactivity (PSR sort gate)” value is listed as “low polyreactivity”.

For the sequence “QDQIVETGGGLVQAGCSLRLSCAASGSIYYNSMGWYRTAHAKETELVASISTGDSTDYADSVKGRFTISRDYAKYTVYLQMNSLKPEDTAVYYCKAVASQHDEFDYWGQGTQVTVSS”, the “polyreactivity (PSR sort gate)” value is on record as “low polyreactivity”.

For the sequence “QDQLEESGGGLVQEGGSLRLSCAASGFTFRGYAMGWYRQAPGKERELVAAISYSGGSTYYADSVKGRFTISRDNAMNSVYLQMNSLKPEDTAVYFCAARGGGKVRHRGTYDYWGQGTQVTVSS”, the “polyreactivity (PSR sort gate)” value is “high polyreactivity”.

Consider “QDQLGESGGGLVQAGGSLRLSCAASGYIFGTYAMGWYRQATGKERELVAAISVGGGSTYYADSVKGRFTISRDNAKHTVYLQMNSLKPEDTAVYYCAAVQLYQKHQITYVAHEYWGQGTQVTVSS”, for which the “polyreactivity (PSR sort gate)” value was “low polyreactivity”.

Regarding “QDQLLESGGGVFQAGGSLRLSCAASGVIFGSYALGWYRPAPGKERELVADITQSGGRTRYADSVKGRFTISRDNAKNTVYLQMNSLKPEDSAVYYCNAQDVDSGDDYDYWGQGTQVTLSS”, the “polyreactivity (PSR sort gate)” value is given as “low polyreactivity”.

For “QDQLQESGGGLVQAGGSLRLSCAASGSISYPRTMGWYRQAPGKEREFVAGIGVGGTTYYADSVKGRFTISRDNAKNTVYLQMKSLKPEDAAVYYCAVAAYYDKYYVYWGQGTQVTVSC”, the “polyreactivity (PSR sort gate)” value is “low polyreactivity”.

Take “QDQLVDSGGGLDQAGGSLRLSCAASGGTFSSYDMGWYRQEPGKERELLADISWSGSSTDYADSVKGRYTISRDNAKNTVYLQLTSLKPEDTAVYYCAARPISFPYLGRNGYWGQGTQVTVSS”: the “polyreactivity (PSR sort gate)” value is on record as “low polyreactivity”.

Take “QDQLVDSGGGLVQAGGRLRLSCAASGSTYRTYAMVRYRQAPGKERELVAAINSGGSTYYADSVKGRFTISRDNAKNTVYLQMNSLKPEDTAVYSCAREDYVSYRLLYYLFDYWGQGTQVTVSS”: the “polyreactivity (PSR sort gate)” value is recorded as “low polyreactivity”.

As to “QDQLVDSGGGLVQAGGSLRLSCAASGFTFFRKAMGWYREAPGKERQLVAAITRAGSTYYADSVKGRFTISRDNAKNTVYLQMNSLKAEDTEVYYCFDLSNRYAVRYDYWGQGTQVTVSS”, the “polyreactivity (PSR sort gate)” value was “high polyreactivity”.

As to “QDQLVDSGGGLVQAGGSLRLSCAASGSIFTPNAMGWYRQAPGKERELVAAISWSGGGTYYADSVKGRFTISRDNAKNTVYLQMNSLKPEDTAVYYCNAEYTKTGALVIPYTYYYAEDYWGQGTQVTVSS”, the “polyreactivity (PSR sort gate)” value is “low polyreactivity”.

As for “QDQLVDSGGGLVQAGGSLRLSCAASGSIFWTYAMGWYRQAPGKERELVATITYSDGNTYYADSVKGRFTISRDNAMNTVYLQMNSLKPEDTAVYYCNADGIYASISGYRYDYWGQGTQVTVSS”, the “polyreactivity (PSR sort gate)” value is recorded as “low polyreactivity”.

As for “QDQLVESAGGLVQAGGSLRLICAASASIFYWNAMGWYRQAPGKERELVAAITSGGSTYYADSVKGRFTISRDNAKNTVYLQMNSMKPEDTAVYYCAARPRGTYSRLGYWGQGTQVTVSS”, the “polyreactivity (PSR sort gate)” value is “high polyreactivity”.

Take “QDQLVESCGGLVQAGGSLRLSCAASGGIINGYTMGWYRQAPGKETDLVAAITGSGGSTYYADSVKGRYTISRDNAKNTVYLQMNSLKPEETAVYYCARDYHARPNCPRSDDYDYWGQGTQVTVSS”: the “polyreactivity (PSR sort gate)” value is reported as “low polyreactivity”.
